Patent US11091546B2, “Optimized PNE-based chimeric receptor T cell switches and uses thereof” (The Scripps Research Institute, priority 2015, dated 2021)

Tested on: U937 (CLL1+) cells
Assay: Cytotoxicity assay, sCAR-T cells + anti-CLL1 switches
Assay type: cell-based
Settings: with short-dimeric CAR
Source text: FIG. 38A illustrates multiple fusion/grafting locations: A=LCNT1 (light chain N terminus version 1), B=HCNT3 (heavy chain N terminus version 3), C=heavy chain C terminus, and D=light chain C terminus). […] Data shown are an average of duplicate samples, and error bars represent SD. Only the NT switches plus the BvCT and By CH1CL1 as references are depicted.
By utilizing the “universal” anti-peptide sCART cell, multiple switches targeting multiple cancer associated antigens can be rapidly developed. An example of this is the generation of peptide engrafted switches against the AML associated antigen CLL1. A series of 6 plasmids were designed into which commercially synthesized gene-blocks encoding scFv sequences were inserted by gibson phase assembly to generate: Light chain wild type, light chain N-terminal, light chain C-terminal, heavy chain wild type, heavy chain N-terminal and heavy chain C-terminal plasmid constructs. […]
Another example (see Example 7) of switch SAR was shown with the anti-CLL1 switch derived from the anti-CLL1 antibody clone. […] Using these switches in combination with the three different CAR constructs (long, short and short dimeric) in cytotoxicity assays with the CLL1^+U937 cell line it was determined that N-terminal bivalent switches with the short-dimeric CAR was the most optimal for immunological synapse for the in vitro killing of U937 cells (FIG. 38D). […]

B1: anti-CLL1 switch A + B: anti-CLL1 Fab switch, N-terminal bivalent (LCNT & HCNT; SEQ ID 102 & 103) (antibody)
heavy: NYHLENEVARLKKLLVGEAAAKEAAAKADIQLQESGPGLVKPSQSLSLTCSVTGYSITSAYYWNWIRQFPGNKLEWMGYISYDGRNNYNPSLKNRISITRDTSKNQFFLKLNSVTTEDTATYYCAKEGDYDVGNYYAMDYWGQGTSVTVSSARTKGPSVFPLAPSSKSTSGGTAALGCLVKDYFPEPVTVSWNSGALTSGVHTFPAVLQSSGLYSLSSVVTVPSSSLGTQTYICNVNHKPSNTKVDKKVEPKSC
light: NYHLENEVARLKKLGGGGSENVLTQSPAIMSASPGEKVTMTCRASSNVISSYVHWYQQRSGASPKLWIYSTSNLASGVPARFSGSGSGTSYSLTISSVEAEDAATYYCQQYSGYPLTFGAGTKLELKRAAAAPSVFIFPPSDEQLKSGTASVVCLLNNFYPREAKVQWKVDNALQSGNSQESVTEQDSKDSTYSLSSTLTLSKADYEKHKVYACEVTHQGLSSPVTKSFNRGEC
modifications: peptide on N-termini; Made in lab - CLL1(1075.7)-HC_NT3 switch antibody polynucleotide; Made in lab - CLL1(1075.7)-LC_NT1 switch antibody polynucleotide
  immunological synapse for in vitro killing: most optimal
